This passage reports IC50 results from the Immune Epitope Database (IEDB).

pIC50: −log10 of the molar value.

In general, pIC50 refers to −log10 of the IC50, conventionally taken in molar units.

In one experiment the target is HLA-A*02:02. The experiment can be described thus: IEDB peptide-MHC binding, purified MHC/competitive/radioactivity; ≥ and ≤ were set here for values at or beyond the usual limits of such assays.
A further experiment concerns the target HLA-A*02:03. The experiment is described as above.
A further experiment has as its target HLA-A*68:02. Described as above.
For experiment [1], the target named is HLA-A*02:01. Briefly: IEDB peptide-MHC binding, cellular MHC/competitive/fluorescence; ≥ and ≤ were set here for values at or beyond the usual limits of such assays.
The target of another experiment is HLA-A*02:06. The description is as above.
Experiment [2] has as its target HLA-A*02:01. Briefly: IEDB peptide-MHC binding, purified MHC/competitive/radioactivity; ≥ and ≤ were set here for values at or beyond the usual limits of such assays.
Where [3] appears, read: source organism: Vaccinia virus WR.
The mark [4] stands for this setting: source organism: Influenza A virus.

Turning to AAAKTPVIV, the pIC50 was 5.72 with HLA-A*02:02 (setting [3]); 5.85 with HLA-A*02:03 (setting [3]); 5.69 with HLA-A*68:02 (setting [3]); 4.46 with HLA-A*02:01 [1] (setting [3]); 4.17 in the experiment with HLA-A*02:06 (setting [3]).
For AAKTPVIVV, the negative-log IC50 (pIC50) with HLA-A*02:02 (setting [3]) was 5.87; in the experiment with HLA-A*02:03 (setting [3]), 5.79; with HLA-A*68:02 (setting [3]), 5.37; with HLA-A*02:01 [1] (setting [3]), 5.03; with HLA-A*02:06 (setting [3]), 4.60.
For the sequence AVATTHSWI, the pIC50 is 6.36 with HLA-A*02:02 (setting [4]); 6.12 in the experiment with HLA-A*02:03 (setting [4]); 6.06 with HLA-A*68:02 (setting [4]); 4.48 with HLA-A*02:01 [1] (setting [4]); 4.55 with HLA-A*02:06 (setting [4]).
For CLINDPWVL, the pIC50 with HLA-A*02:01 [2] (setting [4]) is 6.90; with HLA-A*02:02 (setting [4]) it was 6.51; with HLA-A*02:03 (setting [4]), 6.59; with HLA-A*68:02 (setting [4]), 5.34; with HLA-A*02:06 (setting [4]), 5.21.
With CLKNEGVSGL, the pIC50 is 6.90 with HLA-A*02:02 (setting [3]); 7.60 in the experiment with HLA-A*02:03 (setting [3]); 5.68 in the experiment with HLA-A*68:02 (setting [3]); 5.20 with HLA-A*02:01 [1] (setting [3]); 4.85 in the experiment with HLA-A*02:06 (setting [3]).
For the sequence DIMTSTRTI, the pIC50 in the experiment with HLA-A*02:01 [2] (setting [3]) is 5.46; in the experiment with HLA-A*02:02 (setting [3]), 5.46; in the experiment with HLA-A*02:03 (setting [3]), 7.10; in the experiment with HLA-A*68:02 (setting [3]), 7.11; with HLA-A*02:06 (setting [3]), 4.66.
With DLFMSHVKSV, the pIC50 with HLA-A*02:01 [2] (setting [3]) was 5.60; with HLA-A*02:02 (setting [3]), 5.47; with HLA-A*02:03 (setting [3]), 7.38; in the experiment with HLA-A*68:02 (setting [3]), 5.71; with HLA-A*02:06 (setting [3]) it was 4.70.
The matching figures for DLNAVTTNNL: 5.79, 5.74, 5.79, 5.47 and 5.12.
DLNRMPTDML: the pIC50 was 5.90 with HLA-A*02:02 (setting [3]); 5.66 in the experiment with HLA-A*02:03 (setting [3]); 5.40 with HLA-A*68:02 (setting [3]); 4.76 with HLA-A*02:01 [1] (setting [3]); 4.32 with HLA-A*02:06 (setting [3]).
Take DTGKKELAL: the pIC50 with HLA-A*02:01 [2] (setting [3]) is 5.47; in the experiment with HLA-A*02:02 (setting [3]), 6.94; with HLA-A*02:03 (setting [3]) it was 6.81; with HLA-A*68:02 (setting [3]), 5.47; in the experiment with HLA-A*02:06 (setting [3]), 4.85.
On to DTIAHINTL, for which the pIC50 in the experiment with HLA-A*02:02 (setting [3]) is 6.13; with HLA-A*02:03 (setting [3]) it was 6.63; in the experiment with HLA-A*68:02 (setting [3]), 5.91; in the experiment with HLA-A*02:01 [1] (setting [3]) it was 4.99; in the experiment with HLA-A*02:06 (setting [3]) it was 4.95.
DTLVKSGLT: the pIC50 in the experiment with HLA-A*02:02 (setting [3]) is 5.71; in the experiment with HLA-A*02:03 (setting [3]), 5.54; in the experiment with HLA-A*68:02 (setting [3]), 5.71; with HLA-A*02:01 [1] (setting [3]), at most 4.15; with HLA-A*02:06 (setting [3]), 4.28.
With DVDIPTFNSL, the pIC50 with HLA-A*02:02 (setting [3]) is 5.74; with HLA-A*02:03 (setting [3]), 5.99; with HLA-A*68:02 (setting [3]), 5.52; with HLA-A*02:01 [1] (setting [3]), 4.74; in the experiment with HLA-A*02:06 (setting [3]), 5.01.
For EIMDKEQLL, the pIC50 was 5.40 with HLA-A*02:01 [2] (setting [3]); 6.74 with HLA-A*02:02 (setting [3]); 6.37 with HLA-A*02:03 (setting [3]); 6.54 with HLA-A*68:02 (setting [3]); 4.58 with HLA-A*02:06 (setting [3]).
As for ELKDLLNVT, the pIC50 in the experiment with HLA-A*02:02 (setting [3]) is 5.81; in the experiment with HLA-A*02:03 (setting [3]) it was 6.68; in the experiment with HLA-A*68:02 (setting [3]) it was 5.56; in the experiment with HLA-A*02:01 [1] (setting [3]), 4.29; with HLA-A*02:06 (setting [3]), 4.41.
Turning to ELLEMKYAL, the pIC50 with HLA-A*02:01 [2] (setting [3]) is 6.55; with HLA-A*02:02 (setting [3]) it was 6.02; with HLA-A*02:03 (setting [3]) it was 6.06; in the experiment with HLA-A*68:02 (setting [3]), 5.82; with HLA-A*02:06 (setting [3]), 5.22.
With ELSRLRYNL, the pIC50 in the experiment with HLA-A*02:01 [2] (setting [3]) was 6.14; in the experiment with HLA-A*02:02 (setting [3]), 9.03; in the experiment with HLA-A*02:03 (setting [3]), 6.60; in the experiment with HLA-A*68:02 (setting [3]) it was 9.00; with HLA-A*02:06 (setting [3]), 4.73.
For ELWARISSSL, the pIC50 with HLA-A*02:01 [2] (setting [3]) is 5.88; with HLA-A*02:02 (setting [3]), 6.76; with HLA-A*02:03 (setting [3]), 6.49; with HLA-A*68:02 (setting [3]), 7.66; with HLA-A*02:06 (setting [3]), 5.03.
EMKYALINL: the pIC50 in the experiment with HLA-A*02:02 (setting [3]) is 5.51; with HLA-A*02:03 (setting [3]), 7.20; in the experiment with HLA-A*68:02 (setting [3]), 5.61; in the experiment with HLA-A*02:01 [1] (setting [3]) it was 4.38; with HLA-A*02:06 (setting [3]), at most 4.15.
For ETLFGSYIT, in that order: 5.60, 5.61, 6.33, 4.81 and 4.81.
In the case of EVTPEYIKDL, the pIC50 with HLA-A*02:02 (setting [3]) was 5.82; with HLA-A*02:03 (setting [3]), 5.64; with HLA-A*68:02 (setting [3]), 5.91; with HLA-A*02:01 [1] (setting [3]) it was 5.19; with HLA-A*02:06 (setting [3]) it was 5.11.
Regarding FIQWTGGNI, the pIC50 in the experiment with HLA-A*02:01 [2] (setting [3]) was 6.28; in the experiment with HLA-A*02:02 (setting [3]) it was 6.17; with HLA-A*02:03 (setting [3]), 7.26; in the experiment with HLA-A*68:02 (setting [3]), 6.35; with HLA-A*02:06 (setting [3]), 5.23.
Take FLRPVLKAM: the pIC50 with HLA-A*02:02 (setting [3]) was 5.86; with HLA-A*02:03 (setting [3]), 8.01; in the experiment with HLA-A*68:02 (setting [3]), 5.61; with HLA-A*02:01 [1] (setting [3]) it was 4.93; in the experiment with HLA-A*02:06 (setting [3]), 5.26.
